4 substances from paper PMC11264168 can be followed below.

The target of experiment [1] is SyB-Cph1(GAF-PHY) Arg101-Ala mutant (Synechococcus sp. JA-2-3B'a(2-13)). In words: SEC; arginine-to-alanine mutants; data not shown.
The target in experiment [2] is SyB-Cph1(GAF-PHY) Arg111-Ala mutant (Synechococcus sp. JA-2-3B'a(2-13)). Put plainly: SEC; arginine-to-alanine mutants; data not shown.
For experiment [3], the target named is SyB-Cph1(GAF-PHY), the GAF-PHY fragment (photo-sensing module) of the PAS-less phytochrome SyB-Cph1, residues 1-421, assembled with phycocyanobilin, as Pr (Synechococcus sp. JA-2-3B'a(2-13)). In words: SEC; Pr in darkness, 30 mM Tris-HCl (pH 8.0), Superdex 200 Increase 10/300 GL, 0.5 ml/min, gel filtration mass standards.
Experiment [4] addresses SyB-Cph1(GAF-PHY) Arg133-Ala mutant (Synechococcus sp. JA-2-3B'a(2-13)). In words: SEC; arginine-to-alanine mutants; data not shown.

As to “SyB-Cph1(GAF-PHY) Arg101-Ala mutant (domain or fragment)”, the stoichiometry N in experiment [1] stood at 2.

In experiment [2], “SyB-Cph1(GAF-PHY) Arg111-Ala mutant (domain or fragment)” showed a stoichiometry N of 2.

Regarding “SyB-Cph1(GAF-PHY), the GAF-PHY fragment (photo-sensing module) of the PAS-less phytochrome SyB-Cph1, residues 1-421, assembled with phycocyanobilin, as Pr (domain or fragment)”, the stoichiometry N in experiment [3] was found to be 2.

On to “SyB-Cph1(GAF-PHY) Arg133-Ala mutant (domain or fragment)”, for which the stoichiometry N in experiment [4] stood at 2.
